Data taken from patent publication US8247535B2, “Directed evolution of GRG31 EPSP synthase enzyme” (Athenix Corp., priority 2008, dated 2012).
Substitutions are numbered along the chain they refer to.

B1: GRG31pm3a11: GRG31 Q-loop library 1 variant, SEQ ID NO:7 (protein)
chain: MNQQVITLTHPSKKIQGTVQLTGSKSESNRALIIQSLSKGQVEIANLSEAADTVTLNRVLQIASDPKPGFNTIDCGNAGTSVRFLTGFLNLVKGNFILTGTERMQQRPIGILVDAMKEIGADIHYDKKVGYPPLKIEGGLFQEKDRVKIKGNISSQYISALLLIAPALKKGLTLEIEGELTSRPYVSMTLDMLKSVGIQHEWKNNAIKIAPQAFEKQTIYVEPDWSAASYWYAIAALADANASIVLPGLRKNSLQGDIAIISIMEHFGVQSSFESDGLHLNKKVIGSDVSLFNFKECPDLAQTVVVVAAALKRDVSFTGLETLKIKETDRIAALQKEIAKFGAELIEDGDTYHLKTAQVYQPEEVTFDTYEDHRMAMAFAPLALVFDQIKIAEPQVVEKSYPDFWNHLQAQAFVIE
modifications: GRG31 variant (clone GRG31pm3a11)
B2: GRG31pm3a6: GRG31 Q-loop library 1 variant, SEQ ID NO:8 (protein)
chain: B1 chain with V82M, G87A, F88V
modifications: GRG31 variant (clone GRG31pm3a6)
B3: GRG31pm3a8: GRG31 Q-loop library 1 variant, SEQ ID NO:9 (protein)
chain: B1 chain with N77P, S81G, G87A
modifications: GRG31 variant (clone GRG31pm3a8)
B4: GRG31pm3b8: GRG31 variant I75→C; P77→N; M82→T, SEQ ID NO:10 (protein)
chain: B1 chain with S81A, V82T, G87A, F88Y
modifications: GRG31 variant (clone GRG31pm3b8)
B5: GRG31pm3b9: GRG31 Q-loop library 1 variant, SEQ ID NO:11 (protein)
chain: B1 chain with G76D, N77A, V82M, T86A, G87A, F88Y
modifications: GRG31 variant (clone GRG31pm3b9)
B6: GRG31pm3d3: GRG31 Q-loop library 1 variant, SEQ ID NO:12 (protein)
chain: B1 chain with G76D, N77A, S81A, V82T, G87A
modifications: GRG31 variant (clone GRG31pm3b3)
B7: L3P2b11: GRG31 variant P77→Q; A81→S; M82→L; Y88→F, SEQ ID NO:13 (protein)
chain: B1 chain with C75I, N77Q, V82L, G87A
modifications: GRG31 variant (clone L3P2b11)
B8: L3P2c11: GRG31 variant Y88→F, SEQ ID NO:14 (protein)
chain: B1 chain with C75I, N77P, S81A, V82M, G87A
modifications: GRG31 variant (clone L3P2c11)
B9: L4e11: GRG31 variant I75→C; A78→S; Y88→H, SEQ ID NO:16 (protein)
chain: B1 chain with N77P, A78S, S81A, V82M, G87A, F88H
modifications: GRG31 variant (clone 4e11)
B10: L3P2c11 + 6e7: GRG31 variant Y88→F; E215→K, SEQ ID NO:21 (protein)
chain: B1 chain with C75I, N77P, S81A, V82M, G87A, E215K
modifications: GRG31 variant (L3P2c11+6e7)
B11: L3P2c11 + 6b2: GRG31 variant Y88→F; N95→S, A206→V, SEQ ID NO:25 (protein)
chain: B1 chain with C75I, N77P, S81A, V82M, G87A, N95S, A206V
modifications: GRG31 variant (L3P2c11+6b2)
B12: L3P2c11 + triple EK: GRG31 variant Y88→F; N95→S, A206→V; E215→K, SEQ ID NO:23 (protein)
chain: B1 chain with C75I, N77P, S81A, V82M, G87A, N95S, A206V, E215K
modifications: GRG31 variant (L3P2c11+triple EK)
B13: L5e3: GRG31 variant P77→T, SEQ ID NO:17 (protein)
chain: B1 chain with C75I, N77T, S81A, V82M, G87A, F88Y
modifications: GRG31 variant (clone L5e3)
B14: L3P2b11 + 6e7: GRG31 variant P77→Q; A81→S; M82→L; Y88→F; E215→K, SEQ ID NO:22 (protein)
chain: B1 chain with C75I, N77Q, V82L, G87A, E215K
modifications: GRG31 variant (L3P2b11+6e)
B15: L3P2b11 + triple EK: GRG31 variant P77→Q; A81→S; M82→L; Y88→F; N95→S, A206→V; E215→K, SEQ ID NO:24 (protein)
chain: B1 chain with C75I, N77Q, V82L, G87A, N95S, A206V, E215K
modifications: GRG31 variant (L3P2b11+triple EK)
B16: L3P2b11 + 6b2: GRG31 variant P77→Q; A81→S; M82→L; Y88→F; N95→S, A206→V, SEQ ID NO:26 (protein)
chain: B1 chain with C75I, N77Q, V82L, G87A, N95S, A206V
modifications: GRG31 variant (L3P2b11+6b2)

Tests used:
Assay type in all cases: biochemical
GRG31 EPSP synthase [1] = assay: Extract prescreens of library clones at a few glyphosate and PEP concentrations; settings: for activity in glyphosate prescreen / activity at low PEP concentrations: extracts; for activity in glyphosate prescreen: 0, 1, and 2 mM glyphosate, among 31 resistant clones; for activity at low PEP concentrations: 0, 20, 50, and 100 μM PEP, among six clones; for combination of glyphosate resistance and activity at low PEP concentrations: library 3, 0 and 0.2 mM glyphosate, 0, 20, and 50 μM PEP
Experimental: Library 1 was cloned into pAX3625 and 130,000 clones were plated onto plates containing 50 mM glyphosate. […] Extracts were prepared and assessed for glyphosate resistance by assaying activity in the presence of a small number of glyphosate concentrations (0, 1, and 2 mM glyphosate).
Extracts from these six clones were assayed for activity at a range of PEP concentrations (0, 20, 50, and 100 μM PEP).
One hundred and fifteen thousand (115,000) clones were plated onto plates containing 50 mM glyphosate and 384 glyphosate resistant clones were picked for sequencing. […] A Ki assessment of the unique clones was carried out by testing activity at 0 and 0.2 mM glyphosate. […] An assessment of the Km of protein encoded by these nine clones was performed by comparing activity at 0, 20, and 50 μM PEP.

GRG31 EPSP synthase [2] = assay: Kinetic analysis of GRG31 variants (Ki for glyphosate, Km for PEP, Vmax); parameters: Vmax: unit not given here; settings: for Ki: Ki for glyphosate, calculated from plot of Km(app) vs. glyphosate concentration; for Km: Km for PEP; for improvement in Ki for glyphosate relative to GRG31 / Vmax relative to GRG31 / improvement in Km for PEP relative to GRG31: relative to GRG31, in words; for Vmax: unit not given; for Vmax improvement over the GRG31(L3P2c11) protein: relative to GRG31(L3P2c11), in words
Experimental: GRG31 variants L3P2b11, L3P2c11 and L4e11, and L5e3 were characterized by enzymatic assays as described herein, and compared to the native GRG31 enzyme. For each enzyme the apparent Km (Km(app)) was determined at each of several glyphosate concentrations, and a plot of Km(app) vs. glyphosate concentration was used to calculate the Ki for each enzyme. The thermostability for each enzyme was assessed by incubating the enzyme at 37° C. for 16 hours, and then quantifying the enzymatic activity remaining (as Vmax) vs. control enzyme that was incubated at 4° C.

GRG31 EPSP synthase [3] = settings: for thermostability at 37° C. compared with GRG31: survival of activity at 37° C., in words
Experimental: The thermostability of several variants of GRG31 was analyzed by measuring survival of activity at 37° C.

Molecule | activity in glyphosate prescreen (GRG31 EPSP synthase [1]) | Ki (GRG31 EPSP synthase [2]) [µM] | Km (GRG31 EPSP synthase [2]) [µM] | improvement in Ki for glyphosate relative to GRG31 (GRG31 EPSP synthase [2]) | Vmax (GRG31 EPSP synthase [2]) | further results
B1 | best activity |  |  |  |  | activity at low PEP concentrations (GRG31 EPSP synthase [1]): best activity at low PEP concentrations
B2 | best activity |  |  |  |  | 
B3 | best activity |  |  |  |  | 
B4 | best activity | 116 |  |  |  | activity at low PEP concentrations (GRG31 EPSP synthase [1]): best activity at low PEP concentrations
B5 | best activity |  |  |  |  | 
B6 | best activity |  |  |  |  | 
B7 |  | 983 | 11 | improved | 5.7 | combination of glyphosate resistance and activity at low PEP concentrations (GRG31 EPSP synthase [1]): best combination of glyphosate resistance and activity at low PEP concentrations
B8 |  | 715 | 39.6 | improved | 5.3 | combination of glyphosate resistance and activity at low PEP concentrations (GRG31 EPSP synthase [1]): best combination of glyphosate resistance and activity at low PEP concentrations
B9 |  | 389 | 12.4 | improved | 3.5 | 
B10 |  | 416 | 8.6 | more than four-fold | 23.5 | Vmax improvement over the GRG31(L3P2c11) protein (GRG31 EPSP synthase [2]): about four to five-fold; Vmax relative to GRG31 (GRG31 EPSP synthase [2]): approximately equal to that of GRG31; improvement in Km for PEP relative to GRG31 (GRG31 EPSP synthase [2]): approximately two-fold
B11 |  | 405 | 7.9 | more than four-fold | 23.4 | Vmax improvement over the GRG31(L3P2c11) protein (GRG31 EPSP synthase [2]): about four to five-fold; Vmax relative to GRG31 (GRG31 EPSP synthase [2]): approximately equal to that of GRG31; improvement in Km for PEP relative to GRG31 (GRG31 EPSP synthase [2]): approximately two-fold; t1/2 at 37° C. (GRG31 EPSP synthase [3]): 3.5 h; thermostability at 37° C. compared with GRG31 (GRG31 EPSP synthase [3]): improved thermostability
B12 |  | 298 | 12.6 |  | 14.4 | t1/2 at 37° C. (GRG31 EPSP synthase [3]): 2.7 h; thermostability at 37° C. compared with GRG31 (GRG31 EPSP synthase [3]): thermostability equivalent to GRG31
B13 |  | 507 | 11.4 |  | 3.6 | t1/2 at 37° C. (GRG31 EPSP synthase [3]): 10.8 h; thermostability at 37° C. compared with GRG31 (GRG31 EPSP synthase [3]): improved thermostability
B14 |  | 1010 | 10.3 |  | 0.86 | 
B15 |  | 606 | 12.3 |  | 0.72 | 
B16 |  | 628 | 8 |  | 0.59 | 
